Entries after “also recorded” stand apart in the source; their conditions may differ.
Legend:
PAD4 expressing cells = settings: Subramanian et al.; cited from earlier work
[1] = test system: neutrophil extracellular traps; settings: Subramanian et al.; cited from earlier work
NETs [2] = settings: pre-digestion of NETs with DNase 1, in vitro (Farrera and Fadeel); cited from earlier work
NETs [3] = assay: Full-thickness excisional skin wound healing with systemic DNase 1 treatment; type: in vivo, mouse
Description: Mice were induced to be diabetic using multiple low dose injections of streptozotocin (STZ). Six to 8-week old male C57BL/6 or PAD4^−/− mice were randomized into treatment groups of either vehicle or STZ according to their blood glucose levels and body weight at baseline. Mice were fasted for 5 hours and then injected with vehicle or STZ (i.p., 50 mg/kg per day, pH 4, dissolved in 0.1 M sodium citrate buffer) for 5 consecutive days. Fed blood glucose level was measured starting 1 week afterwards. Mice with fed blood glucose level above 300 mg/dL were considered diabetic and used for further experiments. Pancreatic islets were stained for insulin using a rabbit polyclonal anti-insulin antibody (1:500, Cell Signaling, Cat. no. 4590).
Full-thickness excisional wounds were made on the dorsal skin under aseptic conditions as described^22. Mice were anesthetized with ketamine and xylazine (100 mg/kg and 10 mg/kg, respectively, i.p.). Hair was removed and the skin was cleaned with 70% ethanol and betadine. A fold of the dorsal skin was then picked up along the midline, placed over dental wax and punched through with a 4-mm disposable sterile biopsy punch (Miltex) such that 2 wounds were generated in one punch. The procedure was repeated, thus 4 wounds were made per mouse. The mice were housed individually after wounding. In experiments involving diabetic mice, all mice were provided ad libitum with antibiotics (2.5% Sulfatrim) in drinking water. Wounds were digitally photographed using a Sony Camcorder and total wound areas were calculated using ImageJ software. Wound area was expressed as a percentage compared to the area on day 0 when the wounds were made.
Neutrophil recruitment and re-epithelialization were examined in H&E-stained sections. Wounds were cut in half, fixed overnight in zinc fixative and embedded in paraffin. The tissue was sectioned at 10 μm and stained with H&E. Images were acquired with the Zeiss Axiovision software using an Axioplan light microscope coupled to a color Zeiss HRc camera.
Normoglycemic and diabetic WT mice, randomized by blood glucose levels before assigning to treatments, were injected with 10 μg i.v. and 50 μg i.p. DNase 1 (dornase alfa, Genentech) 30 min before wounding and then 50 μg i.p. every 12 hours until wound collection on day 3. Control mice were injected with vehicle (8.77 mg/mL sodium chloride and 0.15 mg/mL calcium chloride)^40.

[4] = normoglycemic WT mice, three days post wounding

Row | Molecule | cell killing (PAD4 expressing cells) | formation of neutrophil extracellular traps [1] | clearance of NETs by macrophages (NETs [2]) | enhancement of re-epithelialization (NETs [3]; STZ-induced diabetic WT mice on antibiotics, day 3 post wounding) | promotion of wound area reduction (NETs [3]; STZ-induced diabetic WT mice on antibiotics, day 3 post wounding, 10 μg i.v. and 50 μg i.p. before wounding, then 50 μg i.p. every 12 hours) | wound healing (wound area reduction and re-epithelialization), in words (NETs [3]; WT mice, diabetic and normoglycemic) | further benefit in wound healing (NETs [3]; diabetic PAD4−/− mice, day 3 post wounding) | enhancement of re-epithelialization (NETs [3]; [4]) | neutrophil recruitment to the wound (NETs [3]; [4]) | wound area versus vehicle (NETs [3]; [4])
1 | CC(C)(C)n1nnc([C@H](CCCNC(=N)CCl)NC(=O)c2ccc(-c3ccccc3)cc2)n1 [BTT-Cl-amidine, biphenyl tetrazole tert-butyl Cl-amidine] | enhanced cell killing | blocks the formation | – | – | – | – | – | – | – | –
2 | DNase 1: DNase 1 (dornase alfa, Genentech), which disrupts NETs (protein, UniProt P24855 23-282, looked up) Deoxyribonuclease-1: LKIAAFNIQTFGETKMSNATLVSYIVQILSRYDIALVQEVRDSHLTAVGKLLDNLNQDAPDTYHYVVSEPLGRNSYKERYLFVYRPDQVSAVDSYYYDDGCEPCGNDTFNREPAIVRFFSRFTEVREFAIVPLHAAPGDAVAEIDALYDVYLDVQEKWGLEDVMLMGDFNAGCSYVRPSQWSSIRLWTSPTFQWLIPDSADTTATPTHCAYDRIVVAGMLLRGAVVPDSALPFNFQAAYGLSDQLAQAISDHYPVEVMLK | – | – | accelerated their clearance | > 75% | > 20% | accelerated wound healing; also recorded: facilitated wound area reduction | did not provide further benefits; also recorded: did not provide additional benefits | ~54% | not affected | smaller than in those treated with vehicle

Reference: patent publication US11400139B2, “Anti-NET compounds for treating and preventing fibrosis and for facilitating wound healing” (THE CHILDREN'S MEDICAL CENTER CORPORATION, priority 2015, dated 2022)
